The results in this text go back to paper doi:10.1101/2020.10.21.349357 (bioRxiv, 2020).

One experiment addresses linear hepta-ubiquitin (UniProt P0CG48 1-76; P0CG48 1-76; P0CG48 1-76; P0CG48 1-76; P0CG48 1-76; P0CG48 1-76; …). Put plainly: co-IP.
The next experiment deals with linear tetra-ubiquitin (UniProt P0CG48 1-76; P0CG48 1-76; P0CG48 1-76; P0CG48 1-76). In words: co-IP.
linear tetra-ubiquitin, sequence (P0CG48 1-304, one chain of several): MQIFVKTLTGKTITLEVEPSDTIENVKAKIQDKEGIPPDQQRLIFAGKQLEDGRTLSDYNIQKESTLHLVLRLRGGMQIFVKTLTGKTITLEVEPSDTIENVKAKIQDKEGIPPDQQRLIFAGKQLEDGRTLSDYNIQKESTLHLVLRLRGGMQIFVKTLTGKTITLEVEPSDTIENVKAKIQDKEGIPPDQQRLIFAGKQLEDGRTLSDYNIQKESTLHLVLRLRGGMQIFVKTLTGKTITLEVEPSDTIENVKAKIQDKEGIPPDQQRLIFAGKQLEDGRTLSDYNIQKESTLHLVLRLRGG

linear hepta-ubiquitin, sequence (P0CG48 1-532, one chain of several): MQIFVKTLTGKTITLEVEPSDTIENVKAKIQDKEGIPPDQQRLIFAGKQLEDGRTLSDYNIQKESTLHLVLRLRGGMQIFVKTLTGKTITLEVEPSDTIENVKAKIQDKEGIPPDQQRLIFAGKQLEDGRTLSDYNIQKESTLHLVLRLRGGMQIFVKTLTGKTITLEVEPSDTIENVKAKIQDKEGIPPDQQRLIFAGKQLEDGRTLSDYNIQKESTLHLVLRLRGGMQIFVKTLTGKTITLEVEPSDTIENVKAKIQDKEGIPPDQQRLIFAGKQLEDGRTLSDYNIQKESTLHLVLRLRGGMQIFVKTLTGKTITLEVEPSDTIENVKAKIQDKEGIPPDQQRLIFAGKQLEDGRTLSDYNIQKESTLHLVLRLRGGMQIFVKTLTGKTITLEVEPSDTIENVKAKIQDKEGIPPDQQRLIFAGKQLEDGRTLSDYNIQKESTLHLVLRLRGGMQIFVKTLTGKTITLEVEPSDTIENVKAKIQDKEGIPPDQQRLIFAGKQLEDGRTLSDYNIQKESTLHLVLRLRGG

B1: HA-tagged N4BP1 (full length) (natural protein, human, UniProt O75113 1-896, looked up)
chain: MAARAVLDEFTAPAEKAELLEQSRGRIEGLFGVSLAVLGALGAEEPLPARIWLQLCGAQEAVHSAKEYIKGICEPELEERECYPKDMHCIFVGAESLFLKSLIQDTCADLCILDIGLLGIRGSAEAVVMARSHIQQFVKLFENKENLPSSQKESEVKREFKQFVEAHADNYTMDLLILPTSLKKELLTLTQGEENLFETGDDEVIEMRDSQQTEFTQNAATGLNISRDETVLQEEARNKAGTPVSELTKQMDTVLSSSPDVLFDPINGLTPDEEALSNERICQKRRFSDSEERHTKKQFSLENVQEGEILHDAKTLAGNVIADLSDSSADSENLSPDIKETTEEMEYNILVNFFKTMGYSQEIVEKVIKVYGPSTEPLLLLEEIEKENKRFQEDREFSAGTVYPETNKTKNKGVYSSTNELTTDSTPKKTQAHTQQNMVEKFSQLPFKVEAKPCTSNCRINTFRTVPIEQKHEVWGSNQNYICNTDPETDGLSPSVASPSPKEVNFVSRGASSHQPRVPLFPENGLHQQPEPLLPNNMKSACEKRLGCCSSPHSKPNCSTLSPPMPLPQLLPSVTDARSAGPSDHIDSSVTGVQRFRDTLKIPYKLELKNEPGRTDLKHIVIDGSNVAITHGLKKFFSCRGIAIAVEYFWKLGNRNITVFVPQWRTRRDPNVTEQHFLTQLQELGILSLTPARMVFGERIASHDDRFLLHLADKTGGIIVTNDNFREFVNESVSWREIITKRLLQYTFVGDIFMVPDDPLGRSGPRLEEFLQKEVCLRDMQPLLSALPNVGMFDPSFRVPGTQAASTSHQPPTRIQGAPSSHWLPQQPHFPLLPALPSLQQNLPMPAQRSSAETNELREALLKIFPDSEQRLKIDQILVAHPYMKDLNALSAMVLD
Consider B1, for which the binding result with linear hepta-ubiquitin and with linear tetra-ubiquitin was “binds” throughout.
